According to publication PMC12416549 (2024):

T1: TNFR1 (Homo sapiens, UniProt P19438)
T1 chain: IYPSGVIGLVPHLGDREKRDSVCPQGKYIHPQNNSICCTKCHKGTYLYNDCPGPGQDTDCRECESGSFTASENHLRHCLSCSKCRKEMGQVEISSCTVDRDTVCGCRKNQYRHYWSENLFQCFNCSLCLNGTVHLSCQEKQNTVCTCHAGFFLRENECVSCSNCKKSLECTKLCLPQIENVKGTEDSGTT


Target: T1, TNFR1
Assay: yeast display SC50

Binder	apparent Kd (screen) [nM]
V95Q (designed binder) SMEEEVEKAAKEYEKKKKEAIEKHLEKLKAKDKEAAERFLKELEEAAKEYAKDEAKTMSEEEAKRRAKKYKEKVLLSELSEEEQKEIKEAEEKLQRTILKYVEEAAK	11.4
A10P (designed binder) SMEEEVEKAPKEYEKKKKEAIEKHLEKLKAKDKEAAERFLKELEEAAKEYAKDEAKTMSEEEAKRRAKKYKEKVLLSELSEEEQKEIKEAEEKLVRTILKYVEEAAK	11.4
K33N (designed binder) SMEEEVEKAAKEYEKKKKEAIEKHLEKLKAKDNEAAERFLKELEEAAKEYAKDEAKTMSEEEAKRRAKKYKEKVLLSELSEEEQKEIKEAEEKLVRTILKYVEEAAK	1.05
E7Y (designed binder) SMEEEVYKAAKEYEKKKKEAIEKHLEKLKAKDKEAAERFLKELEEAAKEYAKDEAKTMSEEEAKRRAKKYKEKVLLSELSEEEQKEIKEAEEKLVRTILKYVEEAAK	7.07
L76Y (designed binder) SMEEEVEKAAKEYEKKKKEAIEKHLEKLKAKDKEAAERFLKELEEAAKEYAKDEAKTMSEEEAKRRAKKYKEKVLYSELSEEEQKEIKEAEEKLVRTILKYVEEAAK	2.05
V95H (designed binder) SMEEEVEKAAKEYEKKKKEAIEKHLEKLKAKDKEAAERFLKELEEAAKEYAKDEAKTMSEEEAKRRAKKYKEKVLLSELSEEEQKEIKEAEEKLHRTILKYVEEAAK	11.4
R96V (designed binder) SMEEEVEKAAKEYEKKKKEAIEKHLEKLKAKDKEAAERFLKELEEAAKEYAKDEAKTMSEEEAKRRAKKYKEKVLLSELSEEEQKEIKEAEEKLVVTILKYVEEAAK	0.869
V74Y (designed binder) SMEEEVEKAAKEYEKKKKEAIEKHLEKLKAKDKEAAERFLKELEEAAKEYAKDEAKTMSEEEAKRRAKKYKEKYLLSELSEEEQKEIKEAEEKLVRTILKYVEEAAK	9.41
K17H (designed binder) SMEEEVEKAAKEYEKKHKEAIEKHLEKLKAKDKEAAERFLKELEEAAKEYAKDEAKTMSEEEAKRRAKKYKEKVLLSELSEEEQKEIKEAEEKLVRTILKYVEEAAK	0.869
E61H (designed binder) SMEEEVEKAAKEYEKKKKEAIEKHLEKLKAKDKEAAERFLKELEEAAKEYAKDEAKTMSEHEAKRRAKKYKEKVLLSELSEEEQKEIKEAEEKLVRTILKYVEEAAK	1.54
K27H (designed binder) SMEEEVEKAAKEYEKKKKEAIEKHLEHLKAKDKEAAERFLKELEEAAKEYAKDEAKTMSEEEAKRRAKKYKEKVLLSELSEEEQKEIKEAEEKLVRTILKYVEEAAK	0.446
S80R (designed binder) SMEEEVEKAAKEYEKKKKEAIEKHLEKLKAKDKEAAERFLKELEEAAKEYAKDEAKTMSEEEAKRRAKKYKEKVLLSELREEEQKEIKEAEEKLVRTILKYVEEAAK	0.593
K71I (designed binder) SMEEEVEKAAKEYEKKKKEAIEKHLEKLKAKDKEAAERFLKELEEAAKEYAKDEAKTMSEEEAKRRAKKYIEKVLLSELSEEEQKEIKEAEEKLVRTILKYVEEAAK	0.539
A20K (designed binder) SMEEEVEKAAKEYEKKKKEKIEKHLEKLKAKDKEAAERFLKELEEAAKEYAKDEAKTMSEEEAKRRAKKYKEKVLLSELSEEEQKEIKEAEEKLVRTILKYVEEAAK	0.446
F39K (designed binder) SMEEEVEKAAKEYEKKKKEAIEKHLEKLKAKDKEAAERKLKELEEAAKEYAKDEAKTMSEEEAKRRAKKYKEKVLLSELSEEEQKEIKEAEEKLVRTILKYVEEAAK	8.56
A35T (designed binder) SMEEEVEKAAKEYEKKKKEAIEKHLEKLKAKDKETAERFLKELEEAAKEYAKDEAKTMSEEEAKRRAKKYKEKVLLSELSEEEQKEIKEAEEKLVRTILKYVEEAAK	0.593
S77K (designed binder) SMEEEVEKAAKEYEKKKKEAIEKHLEKLKAKDKEAAERFLKELEEAAKEYAKDEAKTMSEEEAKRRAKKYKEKVLLKELSEEEQKEIKEAEEKLVRTILKYVEEAAK	4.83
R38Y (designed binder) SMEEEVEKAAKEYEKKKKEAIEKHLEKLKAKDKEAAEYFLKELEEAAKEYAKDEAKTMSEEEAKRRAKKYKEKVLLSELSEEEQKEIKEAEEKLVRTILKYVEEAAK	0.49
D32T (designed binder) SMEEEVEKAAKEYEKKKKEAIEKHLEKLKAKTKEAAERFLKELEEAAKEYAKDEAKTMSEEEAKRRAKKYKEKVLLSELSEEEQKEIKEAEEKLVRTILKYVEEAAK	1.4

The remaining lines, values ahead:

apparent Kd (screen) [nM]	Binder
0.446	A105G (designed binder) SMEEEVEKAAKEYEKKKKEAIEKHLEKLKAKDKEAAERFLKELEEAAKEYAKDEAKTMSEEEAKRRAKKYKEKVLLSELSEEEQKEIKEAEEKLVRTILKYVEEGAK
2.73	A36N (designed binder) SMEEEVEKAAKEYEKKKKEAIEKHLEKLKAKDKEANERFLKELEEAAKEYAKDEAKTMSEEEAKRRAKKYKEKVLLSELSEEEQKEIKEAEEKLVRTILKYVEEAAK
0.956	A30G (designed binder) SMEEEVEKAAKEYEKKKKEAIEKHLEKLKGKDKEAAERFLKELEEAAKEYAKDEAKTMSEEEAKRRAKKYKEKVLLSELSEEEQKEIKEAEEKLVRTILKYVEEAAK
22.2	V74S (designed binder) SMEEEVEKAAKEYEKKKKEAIEKHLEKLKAKDKEAAERFLKELEEAAKEYAKDEAKTMSEEEAKRRAKKYKEKSLLSELSEEEQKEIKEAEEKLVRTILKYVEEAAK
0.593	E5S (designed binder) SMEESVEKAAKEYEKKKKEAIEKHLEKLKAKDKEAAERFLKELEEAAKEYAKDEAKTMSEEEAKRRAKKYKEKVLLSELSEEEQKEIKEAEEKLVRTILKYVEEAAK
0.539	E37T (designed binder) SMEEEVEKAAKEYEKKKKEAIEKHLEKLKAKDKEAATRFLKELEEAAKEYAKDEAKTMSEEEAKRRAKKYKEKVLLSELSEEEQKEIKEAEEKLVRTILKYVEEAAK
1.86	L94D (designed binder) SMEEEVEKAAKEYEKKKKEAIEKHLEKLKAKDKEAAERFLKELEEAAKEYAKDEAKTMSEEEAKRRAKKYKEKVLLSELSEEEQKEIKEAEEKDVRTILKYVEEAAK
1.05	K15V (designed binder) SMEEEVEKAAKEYEVKKKEAIEKHLEKLKAKDKEAAERFLKELEEAAKEYAKDEAKTMSEEEAKRRAKKYKEKVLLSELSEEEQKEIKEAEEKLVRTILKYVEEAAK
0.49	E12H (designed binder) SMEEEVEKAAKHYEKKKKEAIEKHLEKLKAKDKEAAERFLKELEEAAKEYAKDEAKTMSEEEAKRRAKKYKEKVLLSELSEEEQKEIKEAEEKLVRTILKYVEEAAK
1.05	K18M (designed binder) SMEEEVEKAAKEYEKKKMEAIEKHLEKLKAKDKEAAERFLKELEEAAKEYAKDEAKTMSEEEAKRRAKKYKEKVLLSELSEEEQKEIKEAEEKLVRTILKYVEEAAK
0.446	E92D (designed binder) SMEEEVEKAAKEYEKKKKEAIEKHLEKLKAKDKEAAERFLKELEEAAKEYAKDEAKTMSEEEAKRRAKKYKEKVLLSELSEEEQKEIKEAEDKLVRTILKYVEEAAK
18.3	L79E (designed binder) SMEEEVEKAAKEYEKKKKEAIEKHLEKLKAKDKEAAERFLKELEEAAKEYAKDEAKTMSEEEAKRRAKKYKEKVLLSEESEEEQKEIKEAEEKLVRTILKYVEEAAK
6.43	E42I (designed binder) SMEEEVEKAAKEYEKKKKEAIEKHLEKLKAKDKEAAERFLKILEEAAKEYAKDEAKTMSEEEAKRRAKKYKEKVLLSELSEEEQKEIKEAEEKLVRTILKYVEEAAK
1.69	E4F (designed binder) SMEFEVEKAAKEYEKKKKEAIEKHLEKLKAKDKEAAERFLKELEEAAKEYAKDEAKTMSEEEAKRRAKKYKEKVLLSELSEEEQKEIKEAEEKLVRTILKYVEEAAK
